2 molecules from patent US20220089721A1 (Bayer, published 2022) can be followed below.

Experiment [1] has as its target T cell immunoglobulin domain and mucin domain 3 (TIM-3) (human) (UniProt Q8TDQ0). Description: cell-based or functional assay.
The target in experiment [2] is T1, human CEACAM6 (carcinoembryonic antigen-related cell adhesion molecule 6) (human, UniProt P40199 35-320).
T1 sequence (looked up): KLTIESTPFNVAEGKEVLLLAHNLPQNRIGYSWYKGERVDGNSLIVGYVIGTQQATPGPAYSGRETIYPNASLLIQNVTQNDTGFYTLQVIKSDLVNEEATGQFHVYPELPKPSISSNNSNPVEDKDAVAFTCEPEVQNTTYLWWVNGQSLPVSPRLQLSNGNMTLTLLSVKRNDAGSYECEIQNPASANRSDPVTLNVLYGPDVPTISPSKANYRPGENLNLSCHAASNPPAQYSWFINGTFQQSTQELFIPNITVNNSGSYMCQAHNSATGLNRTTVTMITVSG
As to the kind of experiment: cell-based or functional assay.

Take “MAB2365 (rIgG2, R&D Jackson Immunoresearch), anti-TIM3 antibody”: in experiment [1], the IFN-γ in pg/ml, absolute mean, TC + HCC + 0.5 µg/ml FLU pep + 50 µg/ml antibody (isotype Mab006: 735.0) turned out to be 925 pg/mL; the IFNg [pg/ml], isotype corrected, FluM1 T cells + HCC2935, single agent 50 µg/ml, experiment 1 is 65 pg/mL; the IFNg [pg/ml], isotype corrected, FluM1 T cells + HCC2935, single agent 50 µg/ml, experiment 2 came to 67.7 pg/mL; the IFNg [pg/ml], isotype corrected, FluM1 T cells + HCC2935, single agent 50 µg/ml, experiment 3 stood at 37 pg/mL. Moreover, in experiment [1], the IFNg [pg/ml], isotype corrected, FluM1 T cells + HCC2935, single agent 50 µg/ml, experiment 4 came out at 247 pg/mL; the IFNg [pg/ml], isotype corrected, FluM1 T cells + HCC2935, single agent 50 µg/ml, experiment 5 was determined as 287 pg/mL; the IFNg [pg/ml], isotype corrected, FluM1 T cells + HCC2935, single agent 50 µg/ml, experiment 6 was found to be 288 pg/mL; the IFNg [pg/ml], isotype corrected, FluM1 T cells + HCC2935, single agent 50 µg/ml, experiment 7 is 278 pg/mL. In addition, in experiment [1], the IFNg [pg/ml], isotype corrected, FluM1 T cells + HCC2935, single agent 50 µg/ml, mean of n = 7 was determined as 182 pg/mL; the Mean IFNg (pg/ml), isotype corrected, survivin-peptide specific T cells + HCC2935 lung cells, single agent 50 µg/ml, n = 1 is 63.6 pg/mL; the Mean IFNg (pg/ml), isotype corrected, survivin-peptide specific T cells + KS breast cancer cells, single agent 50 µg/ml, n = 1 was 18.3 pg/mL.

B1: anti-CEACAM6 antibody TPP-3310 (antibody, human IgG2, kappa, V domains shown)
VH: QVTLRESGPALVKPTQTLTLTCTFSGFSLSTYGIGVGWIRQPPGKALEWLAHIWWNDNKYYSTSLKTRLTISKDTSKNQVVLTMTNMDPVDTATYYCARISLPYFDYWGQGTTLTVSS
VL: DIQLTQSPSFLSASVGDRVTITCKASQNVGTAVAWYQQKPGKAPKLLIYSASNRYTGVPSRFSGSGSGTEFTLTISSLQPEDFATYYCQQYSSYPLTFGGGTKVEIKR
In the case of B1, in experiment [2], the “half-maximal effective concentration (EC50) for activation of T cells in co-culture” value was approximately 1 µg/mL.
